Laboratory results taken from the DeepSol protein solubility set.

Experiment: soluble on expression in E. coli; label from the status in PepcDB or PDB records

Sequence | soluble on expression in E. coli
HENPEGIIRIYASTTPGEHILPSIIKEYKSSYKNVDFEITITDSERCFKALDEGLADIAAVGYLKNKNYEYTIIGKDRLVLIVPPNHPLAEKGTAKLEDILKEDYIDREEGSGTREAFIKALNDKGYSIMDLNVVMRLGSHSAVI | not soluble
MGSSHHHHHHDYDIPTTENLYFQGHMKVKILVDSTADVPFSWMEKYDIDSIPLYVVWEDGRSEPDEREPEEIMNFYKRIREAGSVPKTSQPSVEDFKKRYLKYKEEDYDVVLVLTLSSKLSGTYNSAVLASKEVDIPVYVVDTLLASGAIPLPARVAREMLENGATIEEVLKKLDERMKNKDFKAIFYVSNFDYLVKGGRVSKFQGFVGNLLKIRVCLHIENGELIPYRKVRGDKKAIEALIEKLREDTPEGSKLRVIGVHADNEAGVVELLNTLRKSYEVVDEIISPMGKVITTHVGPGTVGFGIEVLERKR | soluble
MIRVKRLDHVQICIPFGAEDEARAFYTGVLGFQEIEKPESLKGNGGLWYKVGDIQLHIGAENRDGYNSKSHPAFEVEDVEAARRYLEEHGVATQDEKPIPGVKRFSFRDPFRNRIELLEKIM | not soluble
GMEQLQKRKIYDTTASNASTGILNGKSSNVLNWDDVRFSWAYPLYKNMLANFWTPFEINMSHDAKQFPTLTETEQEAFKKIIGLLAFLDSVQTDYSMRAAEYLTDSSLAALMSVLSFQEVVHNQSYSYVLSSLVPKATQDEIFEYWKHDDVLKERNEFIIDGYEKFVDNPTPKTFLESIVYDVILEGLNFYSGFAFFYNLARNQKMVSTSTMINYINRDEQLHVYLFTNIFKELLVEFPELNTEETKTFVKTTLMKAADLEKDWFRYIIGDKIPGINPEDMETYISFIANKRAVQLGMEKPYPEIKHNPMKWIRAYEDVNSGKSDFFEQKSRQYAKVSADNGFDEL | soluble
MTNIEILENMLKLQQKLNDETNGLNWENGYTKEGKLISWRRCIYMECAELIDSFTWKHWKNISSLTNWENVRIEIVDIWHFILSLLLEEYRDKNNKDFKAIATEVNAVSVFQDFCKEEEYPNEGDIYGILNDIELIIHKCSGFGFNLGELLSTYFTLAIKCGLNLEILYKTYIGKNVLNIFRQNNGYKDGSYKKTWNGKEDNEVLAQILEQELDFDTIYKKLEECYKKA | soluble
LESYLLDSERSKVIREMNETYTEFNYKETKKNLEGLASSLEHKYLVEASSLDEGLDEILTLHRLKVPGLLRISFLTTNLIELARETARDIMGRVRGWSKGNQVLRWLSCVFLHARNSLSK | not soluble
MGSDKIHHHHHHMNNKYKNSYIVKEKELVSLSVYNVGFQSCDSLYQWGPGIRDHYLIHYIISGKGRYTVNGSVHTLTPGDAFLVYPNTEVIYQADAQDPWEYTWVGFTGSDAATILRATDFTKAHPYIHSVSNGNEIKRQLMHIYDARGTEFENALEMTGRLYTTLALFVSAATSKPPQNSANSYVQKGIEYISANYSYPITVEDIASYIGLSRSHLFRSFQSILGVSPKEYLTDFRIKQACYLLKHSSLSITAIAGSIGFDNSLYFSKTFHKIKGLSPKEYRSKYKKAQE | not soluble
SMIPEVQKPLHEQLWYHGAIPRAEVAELLVHSGDFLVRESQGKQEYVLSVLWDGLPRHFIIQSLDNLYRLEGEGFPSIPLLIDHLLSTQQPLTKKSGVVLHRAVPKDKWVLNHEDLVLGEQIGRGNFGEVFSGRLRADNTLVAVKSCRETLPPDLKAKFLQEARILKQYSHPNIVRLIGVCTQKQPIYIVMELVQGGDFLTFLRTEGARLRVKTLLQMVGDAAAGMEYLESKCCIHRDLAARNCLVTEKNVLKISDFGMSREEADGVYAASGGLRQVPVKWTAPEALNYGRYSSESDVWSFGILLWETFSLGASPYPNLSNQQTREFVEKGGRLPCPELCPDAVFRLMEQCWAYEPGQRPSFSTIYQELQSIRKRHR | soluble
SNAMQVITSVKEAKQIVKDWKSHQLSIGYVPTMGFLHDGHLSLVKHAKTQDKVIVSIFVNPMQFGPNEDFSSYPRDLERDIKMCQDNGVDMVFIPDATQMYLKNFSTYVDMNTITDKLCGAKRPGHFRGVCTVLTKFFNILNPDIVYMGQKDAQQCVVVRHMVDDLNFDLKIQICPIIREEDGLAKSSRNVYLSKEERKASLAISQSIFLAEKLVREGEKNTSKIIQAMKDILEKEKLIKIDYIELVDFNTMENIENITDNVLGAVAAFVGKTRLIDNFLVQGLK | soluble
MAHHHHHHMQRDADRMKRKKEEHRDEEEFGAFRFADGSMYEGKFCRRESNADGTAKSQFPSAHPPTTRNAQQQELPPPIPFHHGKGVFKDAGGLVYDGCWVEGDMTGEGLLRFPSGATYEGSMYANSFWGTGTYTWPDGSRYEGQWENNKMHGKGTYIDAKGKRWAGKFHHGQGVGLLAEVSL | soluble
AAMKVYDVTAPIYEGMPVYKNKPEKQPKRTTITNGYVTESRIDMDVHTGTHIDAPLHMVEGGATFETIPLNDLVGPCKLFDLTHVNDRITKDDIAHLDIQEGDFVLFKTKNSFEDAFHFEFIFVAEDAARYLADKQIRGVGIDALGIERAQEGHPTHKTLFSAGVIIIEGLRLKDVPEGRYFMVAAPLKLVGTDAAPARVLLFDREP | soluble
MRVHVPAQDAREAVRQAAATTGDADVLSETDRRLLATAHELDGTLVSDDYAMQNVAAELAVTVESISQDGITERRDWRLQCQGCGREFDDTDHDRCPVCGSPLERKNPSLEHHHHHH | not soluble
MGSDKIHHHHHHMLYRTNPKNGDKLSILGFGAMRLPTKEDGSIDEEKATKMVRYAIDNGVNLVDTAWPYHMGECEPFLARALSEGYREKVKLSTKLPTWAVNTREDMDKFLNAQLEKLNTKQIDYYLLHTLTKASWAKIKDLGVIDFLNSAKEDGRIKNAGFSYHGMQEDFAPIVDDYNWDFCLIQYNYLDEKVQAGTKGLKYAASKGLGVFVMEPLRGGNLAGKTPEEVMEIWNKADKKRTTVEWALRWVWNHPEVTSVLSGMTEPEQLEENIKIAEEGYPNSLTQKELGLIEQAALKYGELLKINCTGCGYCMPCPANVDIPTCFGIYNNLHMFHDETQRFQYFATLSDIFWTNEPHFASQCTNCGICIEKCPQYIQIPEMLEKVVAEFEGPDNDEKMAMVKSVFKM | not soluble
MAHHHHHHMDYRQKAARLPRSAEEKSRWRRVIIILEHCPLAVVRGKYGFELLAERHRAHHARYKQDPAEWRPDVVHQALLHLMDSPLNRAGMLQVFLRTKKGVVIAVDPRLRVPRHMRLFEKMMVSCLYRMKVRAANGSVSLLRVVKNPVTDHIPANCTLIRVEKDGDAVPDIFAYCATCGTNRHADGSTSENVGTATACSSSAGSDAKEPHFAQKHRDLADAKQFRPFAFIIGGMSKGDVDAPYAPRAQVKSIRLGDRGMSAAAACSVIIHGFEEEWLREDNEAC | not soluble
MGSDKIHHHHHHMTNTFSFDWAIAPETPDTFFAEYFEKKPMLIKRGQPGYFSDLLSYGEIDRVVSTMGLHVPEINVTRADGNITPADFAYETGQIDPVRVNQLHADGATVILSGLHERLPALARYCRAMEAAMSARVQTNIYMTPPGNQGFNPHYDGHDVLVLQVAGTKEWRIYGTPVELPLADQAFERGMDVGEEAQRFVLEPGDAVYIPRGMAHDAVATDETSLHITTGLMFRTWADALAEAVIAKAHREPSLRRALPPGFANNGVDLDDYKDTFAELIELVGDAHVGKLLSGFREEFLTARVPRVEGQMAQLAKLDGLTMDSRMGAHPHIVFGIHDVPNEDQVCLVAQGAEIILPAHARDAMEFCITTADFRLGDMEGDLDDAGKMVLAKRFVREGLMRVL | not soluble
MSLGSQGSGLEQSSFQWSPSGRRTGSLYCRVGIGFHLQIYPDGKVNGSHEANMLSVLEIFAVSQGIVGIRGVFSNKFLAMSKKGKLHASAKFTDDCKFRERFQENSYNTYASAIHRTEKTGREWYVALNKRGKAKRGCSPRVKPQHISTHFLPRFKQSEQPELSFTVTVPEKEGHHHHHH | not soluble
MIGSYALSILDEAEVLVDLLTGGAPKVNKIFLITSSRRKRPDYYGELESCLKEMDLNLEIITVDDVSNFFEVYLILEKICELEGTPKWVNVGSGHGIMLSALAVHAFIKDALLVAFDKEEKKVIVTDIKKLKRIKIYQKRYFELISELGEGEKTITELSKIFNLSRSAMSRRLKHMETLNIVVRKGTGRSNIPYVFKLTELGRKLL | soluble
SLNTGEPAPVLSSPPPADVSTFLAFPSPEKLLRLGPKSSVLIAQQTDTSDPEKVVSAFLKVSSVFKDEATVRMAVQDAVDALMQKAFNSSSFNSNTFLTRLLVHMGLLKSEDKVKAIANLYGPLMALNHMVQQDYFPKALAPLLLAFVTKPNSALESSSFARHSLLQTLYKV | soluble
GYDHKAIGITAKGAWEAVKRHFRESFNHDIQTTPFTCIGVGDMSGDVFGNGMLLSKQTKLIAAFDHRDIFIDPDPNIAESYTERMRLFQLPRSSWQDYDQTKLSKGGGIFSRTEKTITLSPEAAKAIGFAKQTGTPFEIISALLKAPVDLLWFGGIGTYIRATTETDAQVGDRANDALRITGEQVRAKVIGEGANLGVTQRGRIEYVLNGGRCNTDAIDNSAGVNCSDVEVNIKIVLASALRAKTLTRETRNELLKKMTPQVEQLVLRNNYLQTLALSLAESQSAADL | not soluble
MSLNEPVMNKKHFADNNFEEFQRIIRAKLENFKDRIELIEELLSKYHPTRLKEYTKDGIIYSKQCEFYNFLVGMNEAPFICNRKDLYLKEKMHGGVKEVYFANKHGKILNDDLSEKYFSAIEISEYAPKSQSDLFDKINALDSEFIFMHAYSPKNSQVLKDKLAFTSRRIIISGGSKEQGMTLGCLSELVGNGDITLGSYGNSLVLFADSFEKMKQSVKECVSSLNAKGFLANAATFSMENYFFAKHCSFITLPFIFDVTSNNFADFIAMRAMSFDGKEDNNAWGNSVMTLKSEINSPFYLNFHMPTDEGHHHHHH | not soluble
SLSARSSHLSQPVVKSVLVYRNGDPFYAGRRVVIHEKKVSSFEVFLKEVTGGVQAPFGAVRNIYTPRTGHRIRKLDQIQSGGNYVAGGQEAFKKLNYLDIGEIKKRPMEVVNT | soluble
MSLNLNLIFKEQTLKFNKEEQETYLFLQQHNSDWANIFKEMILQGRDKVTQRLVTSMHRENLVKARTQSKKILSRDLIMLDISTTHILEIQFPQAKQTLYAPITGEHAFDRIDVEGPFYIKDDITNTITRVHHPNEILECILIEAPDLKNAASDQFQQDLINSATNMTFAISYQALSMQHDSAPLFNIIENSEDSYLRSEQAVIEGHPLHPGAKLRKGLNALQTFLYSSEFNQPIKLKIVLIHSKLSRTMSLSKDYDTTVHQLFPDLIKQLENEFTPKFNFNDYHIMIVHPWQLDDVLHSDYQAEVDKELIIEAKHTLDYYAGLSFRTLVPKYPAMSPHIKLSTNVHITGEIRTLSEQTTHNGPLMTRILNDILEKDVIFKSYASTIIDEVAGIHFYNEQDEADYQTERSEQLGTLFRKNIYQMIPQEVTPLIPSSLVATYPFNNESPIVTLIKRYQSAASLSDFESSAKSWVETYSKALLGLVIPLVTKYGIALEAHLQNAIATFRKDGLLDTMYIRDFEGLRIDKAQLNEMGYSTSHFHEKSRILTDSKTSVFNKAFYSTVQNHLGELILTISKASNDSNLERHMWYIVRDVLDNIFDQLVLSTHKSNQVNENRINEIKDTMFAPFIDYKCVTTMRLEDEAHHYTYIKVNNPLYRENNEGHHHHHH | soluble
MAGDPMFKLKINNFQLGFKLVQWPVTNHLLKHFYVFPINNKGGLAIKRIISLALFKKRLNKDKINNCHVWEEELPDGSYDMGFNGNFNHMEKRKSGYVTQKQFSEFKDANNQRLIKIETTLAIQGEQINKLTQTVEKQGEQINQLVQVVLLQGASKLENFKWSKKHKDKSLMPAWIVWKIFWWKVLEHHHHHH | not soluble
